Values quoted from earlier work in PMC7080216.

Experiments:
[1] = target: matriptase (Homo sapiens) (UniProt Q9Y5Y6)
[2] = target: cathepsin G (Homo sapiens) (UniProt P08311)
Chain of UniProt P08311 (P08311 21-243): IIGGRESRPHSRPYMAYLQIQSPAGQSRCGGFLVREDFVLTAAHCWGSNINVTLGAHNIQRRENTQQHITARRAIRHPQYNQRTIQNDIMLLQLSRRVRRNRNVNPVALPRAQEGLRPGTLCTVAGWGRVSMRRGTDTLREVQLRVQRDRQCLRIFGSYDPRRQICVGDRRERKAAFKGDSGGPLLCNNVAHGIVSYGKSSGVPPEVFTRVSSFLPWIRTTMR

Chain of UniProt Q9Y5Y6 (Q9Y5Y6 whole entry): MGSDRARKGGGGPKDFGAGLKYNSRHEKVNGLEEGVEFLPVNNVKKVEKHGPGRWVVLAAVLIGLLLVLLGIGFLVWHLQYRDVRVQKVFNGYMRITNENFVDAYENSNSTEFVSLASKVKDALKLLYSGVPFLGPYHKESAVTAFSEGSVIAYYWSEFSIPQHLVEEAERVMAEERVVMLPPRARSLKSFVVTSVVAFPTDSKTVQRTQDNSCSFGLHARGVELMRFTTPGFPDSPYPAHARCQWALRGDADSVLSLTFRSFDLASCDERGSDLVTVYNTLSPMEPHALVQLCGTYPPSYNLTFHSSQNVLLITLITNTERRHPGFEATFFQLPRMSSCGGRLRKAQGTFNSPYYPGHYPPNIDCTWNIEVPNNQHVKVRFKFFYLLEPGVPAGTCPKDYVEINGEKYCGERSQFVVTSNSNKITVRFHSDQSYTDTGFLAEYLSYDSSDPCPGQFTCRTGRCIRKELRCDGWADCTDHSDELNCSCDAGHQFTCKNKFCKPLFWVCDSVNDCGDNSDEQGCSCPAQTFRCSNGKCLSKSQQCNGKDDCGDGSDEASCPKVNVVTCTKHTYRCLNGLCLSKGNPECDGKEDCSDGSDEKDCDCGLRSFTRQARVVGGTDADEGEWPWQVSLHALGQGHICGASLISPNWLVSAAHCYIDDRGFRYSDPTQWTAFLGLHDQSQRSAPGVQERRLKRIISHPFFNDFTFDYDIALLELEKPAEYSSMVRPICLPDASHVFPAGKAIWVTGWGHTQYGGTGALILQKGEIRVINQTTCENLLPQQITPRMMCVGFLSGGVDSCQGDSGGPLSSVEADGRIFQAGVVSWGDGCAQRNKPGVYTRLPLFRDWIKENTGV

- Ki [1]: 1 nM
- Ki [2]: 570 nM
Substance: SFTI-1 (from UniProt Q4GWU5)
